Laboratory results: the DeepSol protein solubility set

Test: soluble on expression in E. coli; label from the status in PepcDB or PDB records

Question: Which “soluble on expression in E. coli” value does the source give for “MLIGMSNQTVNQAVSSGVKASPHRFNRFEIKYLITEQDVPALREQLATRMSTDPLSPPGGYRVESLYFDSADLRCYTEKIEGLKFRRKLRIRTYGDGVLTPESTVSVEIKQRVNKVTQKRRLDLPFIYALALGDSTGAAVGEQVDVEKLLEISPENQHALIHEMASFAKNYRLRPIATTKYHREAFVGADAEESSRVTIDHGVSGRDRDFLLGQDLEDRPTVAQGLAVVEIKCDERVPFWLTDMTAQLEMSVIRMSKYCETIEAFHNRPASAFGAVDPIFLEHHHHHH” here?
Answer: soluble

Question: With “MLIRTEAPADILTVDRLVRSAFDTEAEAKLVMSLRENSHLTLALVACSDDGEVIGHCLFSPVTLNGDDLNWQGLAPLCVKKEHQKQGIAEALVKEGLEMLTELGYPVVVVLGDSNYYQRFGFESATNYDMHSKWEVPEGAFMIKACSSEFLEGRSGLIEYCPEFDVL” as the sequence, how does the “soluble on expression in E. coli” value read?
Answer: not soluble

Question: For “MSSSTTDDDSCSYFFFRQACLIPTPSVPTHPSVSIKIYPPFAEFIDFGGASRHILTNNGTCRIVFKVKCSNNLVFKVSPVYAFLDPGATAELQVLRREGPPKHDKLIISLKEAKKGDKDPRVTFNDSTHTTHKHILPLLTRIVEEQ”, which “soluble on expression in E. coli” value is on record?
Answer: not soluble

Question: With “MAHHHHHHSLVDVRQSIHSEHAKTLDTQALRREFLIENIFVADEYTMVYSHIDRIIVGGIMPVSHPVEIGGEVGKQLGVSRLLDRRELGVINIGGAGAIIVDGQRHDIGHRDALYIGKGAKELVFVSNEASRPAKFYYNCAPAHTAYPTKKVSPADVAPVTLGDNLTSNRRTINKYFVPDVLETCQLSMGLTELAPGNLWNTMPCHTHERRMEVYLYFNMEEDSCVFHMMGQPQETRHIVMRNEQAVISPSWSIHSGVGTKAYTFIWGMVGENQVFDDMDHVAVQDLREG” as the sequence, how does the “soluble on expression in E. coli” value read?
Answer: soluble

Question: For “MKPNPPINELVLLQAHQLAERIRLRQVSCREVMQAYLAHIERFNPRVNALVSLLPAERLLEEADARDGELARGEWRGWMHGLPHAIKDLSLTRGIRTTLGSPLYRDYIPERDGIMVERIRAAGAILIGKTNTPEFGLGSQTYNPLFGATACAYDERLSAGGSSGGAAAALALHLVPVADGSDMMGSLRNPAAFNNVIGFRPSQGRVPFDDSADLFFDQLGYEGPMGRSVRDTALLLSVQAGADRRAPLSIAEPGARFAAPLERDFEGTRLGWLGDLDGYLPMQDGILQMCQRALGDFRSLGCEIEEANLGFAPERLWECWRTLRHWLVAGSLGGVHADPAKRALLKPEALWEVENGLRLGADAVFRASVIRSDWYRAIGRLFERYDYLLLPSAQVFPFAKETPWPRSIEGVAMDTYHRWMEVVVPGSLSGCPVANVQAGFNAEGLPMGLQIIGPHQADFAVLQLAHAYERASRWFERQPSPLLAN”, which “soluble on expression in E. coli” value is on record?
Answer: not soluble

Question: Which “soluble on expression in E. coli” value does the source give for “MSLSEVDIAKADPAAASHPLLLNGDATVAQKNPGSVAENNLCSQYEEKVRPCIDLIDSLRALGVEQDLALPAIAVIGDQSSGKSSVLEALSGVALPRGSGIVTRCPLVLKLKKLVNEDKWRGKVSYQDYEIEISDASEVEKEINKAQNAIAGEGMGISHELITLEISSRDVPDLTLIDLPGITRVAVGNQPADIGYKIKTLIKKYIQRQETISLVVVPSNVDIATTEALSMAQEVDPEGDRTIGILTKPDLVDKGTEDKVVDVVRNLVFHLKKGYMIVKCRGQQEIQDQLSLSEALQREKIFFENHPYFRDLLEEGKATVPCLAEKLTSELITHICKSLPLLENQIKETHKRITEELQKYGVDIPEDENEKMFFLIDKINAFNQDITALMQGEETVGEEDIRLFTRLRHEFHKWSTIIENNFQEGHKILSRKIQKFENQYRGRELPGFVNYRTFETIVKQQIKALEEPAVDMLHTVTDMVRLAFTDVSIKNFEEFFNLHRTAKSKIEDIRAEQEREGEKLIRLHFQMEQIVYCQDQVYRGALQKVREKELEEEKKKKSWDFGAFQSSSATDSSMEEIFQHLMAYHQEASKRISSHIPLIIQFFMLQTYGQQLQKAMLQLLQDKDTYSWLLKERSDTSDKRKFLKERLARLTQARRRLAQFPGEGHHHHHH” here?
Answer: soluble

Question: With “MASDRKRQIIEAAAQSFAAFGYKATTMEQIAKLANVGKGTIYTFFKSKEELLDEIVSGLIMEIKAEAELAMDSSLPFSENVHRALYRILEFRQRHQLTAKLLQEVRNIGTVAVQEVLAKLDRAMVEFIRQKIDAAVEKGEIRPCNSEITAFLMLKTYIALIVDWEKDHEPLTKEQIAELFTLYFLQGLSR” as the sequence, how does the “soluble on expression in E. coli” value read?
Answer: not soluble

Question: For “MKPTFLEFRHLKTLLALKETGSVSLAAKRVYLTQSALSHQIKLIEEQFGLPLFERKSNPLRFTSAGERLIRLANEVMPKVIDAERDLARVKHGDAGQLRIAVECHTCFDWLMPAMDEFRQHWGLVELDIVSGFHTDPVGLLLSHRADWAIVSEIEHNDDVIFKPLFSYEMVGICSKNHSLAEKDIWEAEDFIDETWVTYPVPDDMLDLWRKVLKSKGINPTRRTTELTIAMIQLVASRRGIATIPYWAALPYLEKGYVVARKVTKEGLYSNLYAAIRKEDESLSYLEDFYQTVKSQSFSTLPGLSVLNL”, which “soluble on expression in E. coli” value is on record?
Answer: not soluble

Question: With “GSKGDSKETRLTLMEEVLLLGLKDREGYTSFWNDCISSGLRGCMLIELALRGRLQLEACGMRRKSLLTRKVICKSDAPTGDVLLDEALKHVKETQPPETVQNWIELLSGETWNPLKLHYQLRNVRERLAKNLVEKGVLTTEKQNFLLFDMTTHPLTNNNIKQRLIKKVQEAVLDKWVNDPHRMDRRLLALIYLAHASDVLENAFAPLLDEQYDLATKRVRQLLDLDPEVECLKANTNEVLWAVVAAFTK” as the sequence, how does the “soluble on expression in E. coli” value read?
Answer: soluble

Question: For “MGMTPAQEVISYLINAAIGVSSTSSRPFRDAPPGCPDTLLVQCVKWFFRNGDFSNFYEDIKYLVKGKSLAGFVNSHLMVCPELIRIIVENADNKSRRVKFLIKKDEFAICVGRGRLITFPFTKDMEEPACILAEYTELLFSFPHYDIEYSFEGSYGLSRNMDLTETHIMLLSKLTPSMFAEKARPRRVRERNGRLAVRMSRISWNRSGLYYNAIIQFFESLRGTVITQGEQPLCEKSVTYQEMLKHTLAHPGVHQLDSRPNFQWKISMRKTRKND”, which “soluble on expression in E. coli” value is on record?
Answer: not soluble

Question: With “MSESITITANSIDNPETDVRRNERFHLVPRKRLEALVTTSGLIGAMIGFYDGVKISSLRYLTENAHRMPKTVGGWYFYHKKKNYVMIVAGVKKAITTSFKYGAAVGGFFGLEYLLDISRGNTIDFFNTTTAAFLTSTFYAKYNKLSSMQTRKMIFKGTALGLTLGLIQDYLIHARKGRVWYLDRYTQQKLV” as the sequence, how does the “soluble on expression in E. coli” value read?
Answer: not soluble

Question: Which “soluble on expression in E. coli” value does the source give for “PYKASKSRGLVVSNIYSRYDINELESGLMRVSQNKYSPDNYLFQEGQYLDKETLEKWLDRKSEKNPNGLNPESNGDGKDRKPIYLAHILEQDYLKQTDKDTVALGGISIALAMNSVDYYQKEQYGDTFEQEISDSDLLAQGKEMSGTVLNRIRQTKGLENVPVTIAIYKQGPRDAVAPGNFLTYATANGDSLSSWKDVEEKNYVLPSTESAKDHKTDNDNFLNFKKAIEDYYPNFTGVVGRARYEDGQLAELSIDIPLQFYGQAEIIGFTQYVTDLVGQHIPKTADLQVNISTSDGPAALITRKANEDAATA” here?
Answer: not soluble

Question: With “MAHHHHHHMYPKNELQVLNILYIIIYSFFVDEEIDNIKDETQEIQAYNYTSLMIPSDVSSENNSDTKHFSVVTISFFILYSENIKQVLNLQESIDIQKIKEKKEKKKKQEVFKDIMCSDIKYEKKIKRKKKKIFENKRSSKKNKNNIRDFINLEKDIIITKTLMYNKKKKLDDIYKYTSKKEKTINNLNKNMIKEAAHMQELLIENFKKTEDLIKVRRGGGKIKKKEKTQRIYIHIYIHIYIHI” as the sequence, how does the “soluble on expression in E. coli” value read?
Answer: not soluble

Question: Which “soluble on expression in E. coli” value does the source give for “MKKRQSCRSFDYSKPVSKEDLISILEAGRLSPSACNSQPYEVFVAQGEKAKIIADAKMGSFNKFIDDCNTFLVIAEDNYSLPAKIGSLIKKVDFKAIDIGILTANLVNAASALNLETCILGVFDEKRIQKLIERKKRIRLVIALGYPKEGYPLREKTRKDFDDNMHFLA” here?
Answer: not soluble

Question: Which “soluble on expression in E. coli” value does the source give for “HHQELCTKGDDALVTELECIRLRISPETNAAFDNAVQQLNCLNRACAYRKMCATNNLEQAMSVYFTNEQIKEIHDAATACDPEAHHEHDH” here?
Answer: soluble

Question: For “MRILFVGPPLYGLLYPVLSLAQAFRVNGHEVLIASGGKFAQKAAEAGLVVFDAAPGFDSEAGYRRQEALRKENNIGTKMGNFSFFSEEMTDPLVAFAGQWRPDLIVYPPLGVVGPLIAAKYDIPVVMQTVGFGHTPWHIKGVTKSLSNAYRRHGVSAPPRDLAWIDVTPPSMSILQNDGEPVISMQYVPYNGGAVWEEWWERTPDRKRLLVSLGTVKPMVDGLDLISWVMDSAGEVDAEIILHLPANARSDLRSLPPNVRLVDWLPMGVFLNGADGFIHHGGAGNTLTALHAGIPQIVFGQGADRPVNARAVVERGCGIIPGKSGLTSSMINTFLGNRALREASQEVAAEMAAQPCPTEVAKKLIAMLQHGLEHHHHHH”, which “soluble on expression in E. coli” value is on record?
Answer: not soluble

Question: With “MGSDKIHHHHHHMSQSIRQAVMQASQAWIADFNRQAFADCIARYLPEAQMQVSPFGRFDGVEAISQFWLGFAQQNPGELVYRNVEIKVLSDSQAILSANWRMNIASGFISKELWTLADDGHWYLEEDDFSVLTQLSEPLAPRMRSALVLVDLQNDYFKGGRFALDNCEAAAANAAKLLHHFRSNQLPVIHVQHIFKDPEASFFQAGTQGVEIADMVAPKGNEPVIIKHYVDSFIDTALSQTLIEMGIDKLVVVGAMAQACVQTLCRSAVKAGFECEVISDAIAAPSLSWESQDLSGEQLVAANLISLSFGGAKALSLDDWLILERLAG” as the sequence, how does the “soluble on expression in E. coli” value read?
Answer: not soluble

Question: With “MGSDKIHHHHHHMEKKRILFLANHFITLYSFRKEMIKEMVKKGHELYLSLPKSEENKYFEDLGCHIVETEIDRRGVNPMKDLKLIYFYKKMIPLVNPDIIFSYTIKPNIYGTIASNGKYKQVCNITGTGETFLKRSIVSTICKVLYKLSIKKCYKVFFQNTGDRDFFIKEGLIRENYAMLPGSGCNLQQHVFMPLPEGDEIRFLFIGRVMKLKGIDQYLQAAEIVKKKYPNTKFYIAGWNEQLEYMKLVEEAQKTGSVEYIGFRKDIDQWIEKCHCTILPSHGGEGVPNVLLESSATGRICIGSKINGTMDVIDDGKTGYLFNTGDGEDLARQIEKFIQLSPEEKASMGKVAREKVEREFDRQIVVKAYLDEVTKC” as the sequence, how does the “soluble on expression in E. coli” value read?
Answer: not soluble

Question: Which “soluble on expression in E. coli” value does the source give for “MFAELIRAGLQALIEAEATEAIGAGRYERSDGRIVHRNGHRPKTVSTTAGDIEVQIPKLRAGSFFPSLLERRRRIDKALHAVIMEAYVHGVSTRSVDDLVAAMGVQAGVSKSEVSRICAGLDTEIEAFRTRSLTHTEFPYVFCDATFCKVRVGAHVVSQALVVATGVSIDGTREVLGTAVGDSESYEFWREFLASLKARGLTGVHLVISDAHAGLKAAVAQQFSGASWQRCRVHFMRNLYTAVAAKHAPAVTVAVKTIFAHTDPEEVGAQWDRVADPLCQP” here?
Answer: soluble

Question: For “MTFSCEPAELRSRAKAAFIGLAVGDALGAPVEFMTTGEIKAKHGVLREIVGGGWLRLKPGQVTDDTDMSLCVARGVAKAGEWNLTAIAEEFAAWLRSKPVDVGDTCRRGIRNYMLKGLLETPFNQWDAGNGAAMRMLPTALFTMGDDNLLCRCAVEQGHLTHNHPLSDAACITLGRLVHLSVLGFSKPRLRREADRLTESHPTFSFEPYRGLATGYVVDTMQTVLHFFFRGRDFEECLVSTVNQGGDADTTGAIIGMVAGAYYGMEEIPRRWLKKMDRQVLDEIDTLSDLLISLSPALRSGNGILLPPA”, which “soluble on expression in E. coli” value is on record?
Answer: not soluble
